In patent US20220089695A1 (NEW YORK UNIVERSITY, published 2022):

Target: T1, S1-69/70 DelFc (SARS-CoV-2, UniProt P0DTC2 14-685)
T1 construct: domain: S1
Assay: Fc-tagged protein on receptor-expressing HEK293T cells (FIG. 13A)

Binder	binding result
Asialoglycoprotein Receptor 1 expressed on cells (receptor, whole, on cells; also called ASGR1) MTKEYQDLQHLDNEESDHHQLRKGPPPPQPLLQRLCSGPRLLLLSLGLSLLLLVVVCVIGSQNSQLQEELRGLRETFSNFTASTEAQVKGLSTQGGNVGRKMKSLESQLEKQQKDLSEDHSSLLLHVKQFVSDLRSLSCQMAALQGNGSERTCCPVNWVEHERSCYWFSRSGKAWADADNYCRLEDAHLVVVTSWEEQKFVQHHIGPVNTWMGLHDQNGPWKWVDGTDYETGFKNWRPEQPDDWYGHGLGGGEDCAHFTDDGRWNDDVCQRPYRWVCETELDKASQEPPLL	binds
Dendritic cell-specific intercellular adhesion molecule-3-grabbing nonintegrin expressed on cells (receptor, whole, on cells; also called DC-SIGN; CD209) MSDSKEPRLQQLGLLEEEQLRGLGFRQTRGYKSLAGCLGHGPLVLQLLSFTLLAGLLVQVSKVPSSISQEQSRQDAIYQNLTQLKAAVGELSEKSKLQEIYQELTQLKAAVGELPEKSKLQEIYQELTRLKAAVGELPEKSKLQEIYQELTWLKAAVGELPEKSKMQEIYQELTRLKAAVGELPEKSKQQEIYQELTRLKAAVGELPEKSKQQEIYQELTRLKAAVGELPEKSKQQEIYQELTQLKAAVERLCHPCPWEWTFFQGNCYFMSNSQRNWHDSITACKEVGAQLVVIKSAEEQNFLQLQSSRSNRFTWMGLSDLNQEGTWQWVDGSPLLPSFKQYWNRGEPNNVGEEDCAEFSGNGWNDDKCNLAKFWICKKSAASCSRDEEQFLSPAPATPNPPPA	binds
Liver/lymph node-specific intercellular adhesion molecule-3-grabbing integrin expressed on cells (receptor, whole, on cells; also called L-SIGN; CLEC4M) MSDSKEPRVQQLGLLEEDPTTSGIRLFPRDFQFQQIHGHKSSTGCLGHGALVLQLLSFMLLAGVLVAILVQVSKVPSSLSQEQSEQDAIYQNLTQLKAAVGELSEKSKLQEIYQELTQLKAAVGELPEKSKLQEIYQELTRLKAAVGELPEKSKLQEIYQELTRLKAAVGELPEKSKLQEIYQELTRLKAAVGELPEKSKLQEIYQELTELKAAVGELPEKSKLQEIYQELTQLKAAVGELPDQSKQQQIYQELTDLKTAFERLCRHCPKDWTFFQGNCYFMSNSQRNWHDSVTACQEVRAQLVVIKTAEEQNFLQLQTSRSNRFSWMGLSDLNQEGTWQWVDGSPLSPSFQRYWNSGEPNNSGNEDCAEFSGSGWNDNRCDVDNYWICKKPAACFRDE	binds
C-type lectin domain family 10 member A expressed on cells (receptor, whole, on cells; also called CLEC10A) MTRTYENFQYLENKVKVQGFKNGPLPLQSLLQRLCSGPCHLLLSLGLGLLLLVIICVVGFQNSKFQRDLVTLRTDFSNFTSNTVAEIQALTSQGSSLEETIASLKAEVEGFKQERQAGVSELQEHTTQKAHLGHCPHCPSVCVPVHSEMLLRVQQLVQDLKKLTCQVATLNNNASTEGTCCPVNWVEHQDSCYWFSHSGMSWAEAEKYCQLKNAHLVVINSREEQNFVQKYLGSAYTWMGLSDPEGAWKWVDGTDYATGFQNWKPGQPDDWQGHGLGGGEDCAHFHPDGRWNDDVCQRPYHWVCEAGLGQTSQESH	binds
Liver and lymph node sinusoidal endothelial cell C-type lectin expressed on cells (receptor, whole, on cells; also called LSECtin; CLEC4G) MDTTRYSKWGGSSEEVPGGPWGRWVHWSRRPLFLALAVLVTTVLWAVILSILLSKASTERAALLDGHDLLRTNASKQTAALGALKEEVGDCHSCCSGTQAQLQTTRAELGEAQAKLMEQESALRELRERVTQGLAEAGRGREDVRTELFRALEAVRLQNNSCEPCPTSWLSFEGSCYFFSVPKTTWAAAQDHCADASAHLVIVGGLDEQGFLTRNTRGRGYWLGLRAVRHLGKVQGYQWVDGVSLSFSHWNQGEPNDAWGRENCVMMLHTGLWNDAPCDSEKDGWICEKRHNC	binds
